According to publication PMC13036491, “RNA binding protein Musashi1 interacts with the viral genomic RNA and restricts SARS-CoV-2 infection by repressing translation”:

Biological target: GST-Msi1 (Homo sapiens, UniProt O43347 1-362)
Experiment: EMSA; GST-Msi1 ~1.5-9 uM; dose-dependent
Conditions: protein: recombinant; tags: N-terminal GST (pGEX 5X-2); label: fluorescein-12-UTP

Chain of GST-Msi1 (O43347 whole entry): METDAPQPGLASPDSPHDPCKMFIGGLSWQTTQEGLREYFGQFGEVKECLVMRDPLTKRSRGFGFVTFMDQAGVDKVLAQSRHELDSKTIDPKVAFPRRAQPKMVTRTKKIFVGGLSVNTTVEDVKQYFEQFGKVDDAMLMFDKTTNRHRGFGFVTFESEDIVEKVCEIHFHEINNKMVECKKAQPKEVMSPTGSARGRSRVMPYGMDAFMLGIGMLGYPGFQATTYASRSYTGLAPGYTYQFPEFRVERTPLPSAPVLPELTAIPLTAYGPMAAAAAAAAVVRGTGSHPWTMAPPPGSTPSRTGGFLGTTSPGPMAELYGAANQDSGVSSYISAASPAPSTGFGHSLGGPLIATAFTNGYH

GGGAUUUUAGUAGUGCUAUCCCCA (ssRNA) [M2 RNA (HVR MBE)]: binds.
